Where two headings read alike, the source gives them in different places.
B1: Atg17 (recombinant, His-MBP tag removed by TEV), in the untagged Atg17-Atg31-Atg29 complex (natural protein, S. cerevisiae, UniProt Q06410 1-417, looked up)
chain: MNEADVTKFVNNARKTLTDAQLLCSSANLRIVDIKKKLSSWQLSISKLNFLIVGLRQQGKFLYTILKEGIGTKLIQKQWNQAVLVVLVDEMKYWQYEITSKVQRLDGIVNELSISEKDDTDPSKLGDYISRDNVNLLNDKLKEVPVIERQIENIKLQYENMVRKVNKELIDTKLTDVTQKFQSKFGIDNLMETNVAEQFSRELTDLEKDLAEIMNSLTQHFDKTLLLQDKKIDNDEREELFKVVQGDDKELYNIFKTLHEVIDDVDKTILNLGQFLQAKIKEKTELHSEVSEIINDFNRNLEYLLIFKDISNLIDSFKNSCTQDIQTTKELCEFYDNFEESYGNLVLEAKRRKDVANRMKTILKDCEKQLQNLDAQDQEERQNFIAENGTYLPETIWPGKIDDFSSLYTLNYNVKNP
B2: His-MBP-tagged Atg17 (natural protein, S. cerevisiae, UniProt Q06410 1-417, looked up)
chain: B1 chain

Columns and labels:
[1] = target: the molecule itself; assay: negative-stain single-particle EM
[2] = target: the molecule itself; assay: negative-stain single-particle EM; remark: listed apart in the source

Row | Protein | stoichiometry N [1] | stoichiometry N [2]
1 | B1 | 2 | 
2 | B2 |  | 2
